Results reported in PMC3319784.

How the values were obtained:
[1] = molecular target: first Sam domain of Odin (Odin-Sam1) (human) (UniProt Q92625); test: ITC
[2] = molecular target: Sam domain of the EphA2 receptor (EphA2-Sam), wild type (human) (UniProt P29317); test: SPR

| Kd [1] [µM] | stoichiometry N [1] | Kd [2] [µM] | Molecule |
| --- | --- | --- | --- |
| 0.62 | 1 | – | Sam domain of the EphA2 receptor (EphA2-Sam), wild type (from UniProt P29317 902-976) (domain or fragment) |
| – | – | 5.5 | first Sam domain of Odin (Odin-Sam1) (domain or fragment) ISGLRTLEQSVGEWLESIGLQQYESKLLLNGFDDVHFLGSNVMEEQDLRDIGISDPQHRRKLLQAARSLPKVKALGYDGN |
